The values that follow come from patent US20250051474A1, “ANTI-CD97 ANTIBODIES AND ANTIBODY-DRUG CONJUGATES” (New York University, priority 2023, published 2025).

Test [1] addresses T1, CD97 (reference without GAIN mutation) expressed on ExpiCHO cells in the mutational study (human, UniProt P48960 21-835).
T1 construct: the whole entry for isoform 1 is named here; also called CD97 GAIN domain
T1 sequence: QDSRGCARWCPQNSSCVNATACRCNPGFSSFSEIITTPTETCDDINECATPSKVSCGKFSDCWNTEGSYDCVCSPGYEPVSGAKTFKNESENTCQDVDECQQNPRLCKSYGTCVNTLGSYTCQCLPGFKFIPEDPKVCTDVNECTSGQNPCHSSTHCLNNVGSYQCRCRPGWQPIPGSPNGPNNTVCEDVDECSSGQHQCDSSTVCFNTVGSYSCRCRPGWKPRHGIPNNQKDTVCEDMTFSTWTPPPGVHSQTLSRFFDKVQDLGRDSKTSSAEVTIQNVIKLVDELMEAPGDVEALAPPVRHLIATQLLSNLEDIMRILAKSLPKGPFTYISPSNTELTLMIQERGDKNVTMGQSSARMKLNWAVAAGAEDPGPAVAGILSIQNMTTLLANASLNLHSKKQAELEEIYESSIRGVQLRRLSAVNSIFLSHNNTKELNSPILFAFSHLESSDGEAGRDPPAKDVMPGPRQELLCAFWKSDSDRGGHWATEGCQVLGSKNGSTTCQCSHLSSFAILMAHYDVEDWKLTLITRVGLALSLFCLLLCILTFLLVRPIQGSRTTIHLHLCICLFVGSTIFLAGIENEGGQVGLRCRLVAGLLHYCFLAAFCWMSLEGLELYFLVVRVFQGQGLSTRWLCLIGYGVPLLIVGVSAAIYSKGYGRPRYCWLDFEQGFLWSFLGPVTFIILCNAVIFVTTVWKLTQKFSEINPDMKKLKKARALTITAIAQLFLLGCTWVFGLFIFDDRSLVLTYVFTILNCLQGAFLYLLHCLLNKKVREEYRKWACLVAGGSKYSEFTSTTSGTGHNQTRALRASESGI
Description: cell-based binding assay: CD97 transiently expressed on ExpiCHO cells, A8 Fab titrated, flow cytometry MFI, 1:1 fit; the same WT curve and value stand in the upper and the lower panel. In general terms: A flow cytometer gives signals particle by particle.
Description: (§1) KD values were determined from the curve fitting of a 1:1 binding model.

In test [2] the target is T2, CD97 GAIN mutant T524K expressed on ExpiCHO cells (human, UniProt P48960 21-835).
T2 construct: numbering of isoform 1; whole entry named
T2 sequence: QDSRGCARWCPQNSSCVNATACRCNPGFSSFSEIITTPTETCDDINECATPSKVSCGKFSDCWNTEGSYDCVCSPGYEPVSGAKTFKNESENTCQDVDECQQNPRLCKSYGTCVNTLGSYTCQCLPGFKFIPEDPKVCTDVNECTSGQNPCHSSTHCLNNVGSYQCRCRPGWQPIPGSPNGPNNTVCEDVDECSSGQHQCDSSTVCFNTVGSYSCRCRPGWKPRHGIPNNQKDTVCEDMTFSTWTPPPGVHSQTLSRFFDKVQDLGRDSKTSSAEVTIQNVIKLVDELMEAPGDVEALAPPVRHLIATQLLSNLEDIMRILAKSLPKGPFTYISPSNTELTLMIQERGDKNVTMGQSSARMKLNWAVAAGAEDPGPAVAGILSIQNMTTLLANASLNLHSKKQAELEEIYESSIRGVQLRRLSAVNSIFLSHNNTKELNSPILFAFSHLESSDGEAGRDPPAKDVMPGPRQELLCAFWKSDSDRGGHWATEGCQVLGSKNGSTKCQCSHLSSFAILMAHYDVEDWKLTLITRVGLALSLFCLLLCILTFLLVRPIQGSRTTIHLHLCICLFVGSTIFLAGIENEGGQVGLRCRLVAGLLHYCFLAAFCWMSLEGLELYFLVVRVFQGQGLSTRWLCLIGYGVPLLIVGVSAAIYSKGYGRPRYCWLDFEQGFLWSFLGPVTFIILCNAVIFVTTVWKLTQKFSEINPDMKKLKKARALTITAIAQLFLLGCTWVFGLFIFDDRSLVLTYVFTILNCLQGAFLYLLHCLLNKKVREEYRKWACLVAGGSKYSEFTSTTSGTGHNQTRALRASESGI
Description: cell-based binding assay: CD97 GAIN mutant T524K transiently expressed on ExpiCHO cells, A8 Fab titrated, flow cytometry MFI; lower panel.
Description: as §1

Test [3] concerns the target T3, CD97 (ADGRE5) isoform 1 ectodomain, purified and biotinylated (human, UniProt P48960 21-552, limits assumed, biotinylated in vitro using the BirA enzyme).
T3 construct: the whole entry for isoform 1 is named here; also called CD97 isoform 1; Biotinylated CD97 isoform 1
T3 sequence: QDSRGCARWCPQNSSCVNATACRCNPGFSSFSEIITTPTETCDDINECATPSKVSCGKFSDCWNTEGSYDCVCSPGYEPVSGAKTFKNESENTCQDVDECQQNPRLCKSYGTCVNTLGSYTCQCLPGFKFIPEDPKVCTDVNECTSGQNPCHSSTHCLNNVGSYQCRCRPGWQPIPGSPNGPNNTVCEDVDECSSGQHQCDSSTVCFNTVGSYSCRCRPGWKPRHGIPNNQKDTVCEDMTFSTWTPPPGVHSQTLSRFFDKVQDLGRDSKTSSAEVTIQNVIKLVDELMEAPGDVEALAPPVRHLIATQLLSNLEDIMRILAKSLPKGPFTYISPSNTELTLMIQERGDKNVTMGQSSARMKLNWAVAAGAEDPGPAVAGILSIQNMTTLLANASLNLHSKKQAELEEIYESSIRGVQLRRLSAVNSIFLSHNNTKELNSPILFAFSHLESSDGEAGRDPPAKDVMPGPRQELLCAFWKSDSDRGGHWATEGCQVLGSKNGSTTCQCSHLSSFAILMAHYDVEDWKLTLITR
Briefly: bead-based binding assay: biotinylated CD97 isoform 1 on streptavidin beads, Fab titrated, flow cytometry MFI, 1:1 fit; EXPERIMENT 2.
Description: as §1

B1: Antibody clone A8, Fab format (Fab, V domains shown)
VH: EVQLVESGGGLVQPGGSLRLSCAASGFTISSYSIHWVRQAPGKGLEWVASISPYYGSTSYADSVKGRFTISADTSKNTAYLQMNSLRAEDTAVYYCARSWYYYEQNPYWYQKEEQALDYWGQGTLVTVSS
VL: DIQMTQSPSSLSASVGDRVTITCRASQSVSSAVAWYQQKPGKAPKLLIYSASSLYSGVPSRFSGSRSGTDFTLTISSLQPEDFATYYCQQSVYSPVTFGQGTKVEIKR
notes: Fab; also called wild type A8
Usually Kd stands for a measure of binding affinity in units of concentration. Lower therefore signals higher affinity. For the molecule B1, the Kd in test [1] was 45 nM; in test [3], 9.5 nM. In test [2], the binding result is on record as “no binding (tested: 1000 nM)”.
